These results are taken from publication PMC4283936.

Data set [1] has as its target T1, PhoP (Mycobacterium tuberculosis, UniProt P71814 1-247). Briefly: ITC. Background: Isothermal titration calorimetry measures the heat released or taken up as one component is titrated into another.
In data set [2] the target is T1, PhoP. Description: ITC. This is another data set of the same source.
For data set [3], the target named is T1, PhoP. Description: ITC. The source holds these as a separate data set.
Data set [4] addresses T1, PhoP. Description: competition.
The target of data set [5] is His-PhoP (Mycobacterium tuberculosis, UniProt P71814 1-247). Briefly: SELEX.

B1: fadD9 (dsDNA)
DNA 1: CATCTCACAGCCGATCAGCAGCAGGCTT
DNA 2: AAGCCTGCTGCTGATCGGCTGTGAGATG
By Kd is commonly meant the equilibrium constant for the complex coming apart. In turn, B1 gave a Kd in data set [1] of 82 ± 4 nM.

B2: espA -246 (dsDNA)
DNA 1: CTTGGGATCGCGCCGCCTACACGGCGGTTGGC
DNA 2: GCCAACCGCCGTGTAGGCGGCGCGATCCCAAG
As to B2, the binding result in data set [1] was “no binding”.

B3: RD6m23 (dsDNA)
DNA 1: AGTACCTCACAGCAATTTCACAGCTTTCAT
DNA 2: ATGAAAGCTGTGAAATTGCTGTGAGGTACT
Consider B3, for which, in data set [2], the binding result was “binds”.

B4: nuoA -63 (dsDNA)
DNA 1: GTCACGGCAGCCCGGTCACCGCCCGGCC
DNA 2: GGCCGGGCGGTGACCGGGCTGCCGTGAC
Take B4: in data set [1], the binding result was “no binding”.

B5: lipF -214 (dsDNA)
DNA 1: GGGCTCCCATCGAGATCACCGAAAGCGG
DNA 2: CCGCTTTCGGTGATCTCGATGGGAGCCC
Consider B5, for which the binding result in data set [1] was “no binding”.

B6: nuoA -52 (dsDNA)
DNA 1: CCGGTCACCGCCCGGCCGCCGCGCTGGC
DNA 2: GCCAGCGCGGCGGCCGGGCGGTGACCGG
On to B6, for which the binding result in data set [1] was “no binding”.

B7: Rv3134c (dsDNA)
DNA 1: GCCATTTCTGGGACTTTGCTGTGAAAAGCTG
DNA 2: CAGCTTTTCACAGCAAAGTCCCAGAAATGGC
For B7, the Kd in data set [1] came to 61.7 ± 5.3 nM.

B8: RD6m1 (dsDNA)
DNA 1: AGTACCGGCGCTGACTTTCACAGCTTTCAT
DNA 2: ATGAAAGCTGTGAAAGTCAGCGCCGGTACT
B8: in data set [3], the binding signal was ~40 fold lower affinity than RD6.

B9: WB6 D1 (dsDNA)
DNA 1: ATACACAGCTGATTAACAGGATCTATGCC
DNA 2: GGCATAGATCCTGTTAATCAGCTGTGTAT
On to B9, for which the binding result in data set [4] is recorded as “binds”.

B10: WB6 D5 (dsDNA)
DNA 1: AGATACACAGCTGATTAACAGGATCTA
DNA 2: TAGATCCTGTTAATCAGCTGTGTATCT
For the molecule B10, in data set [4], the binding result is given as “binds”.

B11: RD25 (dominant SELEX sequence) (dsDNA)
DNA 1: CTGGAGCATATGGTCCAGTTAGTACCTCACAGCACTTTCAGAGCTTTCATATGCCTGCACC
DNA 2: GGTGCAGGCATATGAAAGCTCTGAAAGTGCTGTGAGGTACTAACTGGACCATATGCTCCAG
Turning to B11, the binding result in data set [5] is reported as “binds”.
